Source: article PMC6733452

B1: unnamed (parent)
chain 1: MFGLGHNSKEISMSHIGTKFILAEKFTFDPLSNTLIDKEDSEEIIRLGSNESRILWLLAQRPNEVISRNDLHDFVWREQGFEVDDSSLTQAISTLRKMLKDSTKSPQYVKTVPKRGYQLIARVETVEEEMARESEAAHDISQPESVNEYAESSSVPSSATVVNTPQPANVVTNKSAPNLGNRLLILIAVLLPLAVLLLTNPSQTSFKPLTVVDGVAVNMPNNHPDLSNWLPSIELCVKKYNEKHTGGLKPIEVIATGGQNNQLTLNYIHSPEVSGENITLRIVANPNDAIKVCE
chain 2: MGYVRVIYQFPDNLWWNECTNQVYYAQDPMKPERLIGTPSIIQTKLLKILCEYHPAPCPNDQIIKALWPHGFISSESLTQAIKRTRDFLNDEHKTLIENVKLQGYRINIIQVIVSENVVDEADCSQKKSVKERIKIEWGKINVVPYLVFSALYVALLPVIWWSYGQWYQHELAGITHDLRDLARLPGITIQKLSEQKLTFAIDQHQCSVNYEQKTLECTKN

Variants of: B1
Conditions: with partner chain of the complex shown; parent: 100; read off a plot

Variant	percent of parent (% capture relative to wild-type ToxR)
chain 1 Q107A	92
chain 1 I120A	90
chain 1 S102A	84
chain 1 S102A T103A Q107A V112A	63
chain 1 K114A	110
